Measurements taken from US20180155450A1 (Sanofi, published 2018).
Positions count from the first letter of the chain named. In names and notes the source's numbering stands. Read-outs that look alike come from different tables or passages of the source. Values belong to the binder of their own block, whether it stands above or below them.

How the values were obtained:
[1] = molecular target: T1, recombinant human IL4 (human, UniProt P05112 25-153); assay: SPR, Biacore 3000; CODV-Ig captured by anti-human Fc, antigen as analyte
T1 construct: also called Antigen1
T1 sequence (looked up): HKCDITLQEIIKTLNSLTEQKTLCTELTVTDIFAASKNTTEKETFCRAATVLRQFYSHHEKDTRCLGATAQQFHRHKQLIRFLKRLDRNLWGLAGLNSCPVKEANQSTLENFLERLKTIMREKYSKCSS
Procedure: (§1) Kinetic binding analysis by Biacore was performed as follows. Surface plasmon resonance technology on a Biacore 3000 (GE Healthcare) was used for detailed kinetic characterization of purified antibodies. […] Chip surfaces were regenerated with 10 mM glycine pH 2.5. Kinetic parameters were analyzed and calculated in the BIAevaluation program package v4.1 using a flow cell without captured antibody as a reference.

[2] = molecular target: T2, recombinant human IL13 (human, UniProt P35225 35-146, limits assumed); assay: as above
T2 construct: also called Antigen2
T2 sequence (P35225 35-146 limits assumed): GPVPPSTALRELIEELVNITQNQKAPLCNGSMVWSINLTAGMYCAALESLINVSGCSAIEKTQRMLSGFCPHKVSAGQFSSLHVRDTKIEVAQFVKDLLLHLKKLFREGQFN
Procedure: as §1

[3] = molecular target: T3, recombinant human IL4 (human, UniProt P05112 25-153); assay: SPR (Biacore 3000), antibody captured, antigen as analyte
T3 construct: bought
T3 sequence (looked up): T1 sequence (looked up)
Procedure: as §1

[4] = molecular target: T3, recombinant human IL4; assay: cell-based or functional assay
[5] = molecular target: T1, recombinant human IL4; assay: SPR, BIACORE 3000; antibody captured by anti-human Fc, antigen 0-25 nM as analyte
Procedure: Kinetic characterization of purified antibodies was performed using surface plasmon resonance technology on a BIACORE 3000 (GE Healthcare). […] Chip surfaces were regenerated with 10 mM glycine, pH 2.5. Kinetic parameters were analyzed and calculated in the BIAevaluation program package v4.1 using a flow cell without captured antibody as reference.

[6] = molecular target: recombinant human IL13 (human, UniProt P35225 35-146, limits assumed); assay: cell-based or functional assay
Target sequence in this assay (P35225 35-146 limits assumed): as above

[7] = molecular target: T3, recombinant human IL4; assay: cell-based or functional assay; remark: listed apart in the source
[8] = molecular target: T1, recombinant human IL4; assay: kinetic table drawn in the figure; assay not named in Example 9, parental rows equal the BIACORE values of Table 6
[9] = molecular target: T3, recombinant human IL4; assay: SPR (Biacore 3000), antibody captured, antigen as analyte; remark: listed apart in the source
Procedure: as §1

[10] = molecular target: T3, recombinant human IL4; assay: SPR (Biacore 3000), CODV-Fab captured with anti-human Fab capture kit, antigen as analyte
Procedure: as §1

[11] = molecular target: T3, recombinant human IL4; assay: cell-based or functional assay; remark: listed apart in the source
[12] = molecular target: T3, recombinant human IL4; assay: SPR (Biacore 3000), antibody captured, antigen as analyte; remark: listed apart in the source
Procedure: as §1

Kd [1]: 0.004 nM
Kd [2]: 0.057 nM
B1: CODV-Ig Batch ID 130 (IL4 × IL13 on LC; L1=1, L2=4, L3=2, L4=4) (bispecific antibody)
chain 1: not shown
chain 2: DIQMTQSPASLSVSVGDTITLTCHASQNIDVWLSWFQQKPGNIPKLLIYKASNLHTGVPSRFSGSGSGTGFTLTISSLQPEDIATYYCQQAHSYPFTFGGGTKLEIKGDIVLTQSPASLAVSLGQRATISCRASESVDSYGQSYMHWYQQKAGQPPKLLIYLASNLESGVPARFSGSGSRTDFTLTIDPVQAEDAATYYCQQNAEDSRTFGGGTKLEIKGGGGRTVAAPSVFIFPPSDEQLKSGTASVVCLLNNFYPREAKVQWKVDNALQSGNSQESVTEQDSKDSTYSLSSTLTLSKADYEKHKVYACEVTHQGLSSPVTKSFNRGEC

IC50 Cellular Assay IL13 [nM] (HEK-Blue IL-4/IL-13 reporter cells, SEAP) [6]: 1.7 nM
IC50 Cellular Assay IL4 [nM] (HEK-Blue IL-4/IL-13 reporter cells, SEAP) [7]: 0.032 nM
B4: CODV-Ig Batch ID 601 (Batch ID 204 with P344C & A432C in IGHG1) (bispecific antibody, human IgG1, kappa)
heavy: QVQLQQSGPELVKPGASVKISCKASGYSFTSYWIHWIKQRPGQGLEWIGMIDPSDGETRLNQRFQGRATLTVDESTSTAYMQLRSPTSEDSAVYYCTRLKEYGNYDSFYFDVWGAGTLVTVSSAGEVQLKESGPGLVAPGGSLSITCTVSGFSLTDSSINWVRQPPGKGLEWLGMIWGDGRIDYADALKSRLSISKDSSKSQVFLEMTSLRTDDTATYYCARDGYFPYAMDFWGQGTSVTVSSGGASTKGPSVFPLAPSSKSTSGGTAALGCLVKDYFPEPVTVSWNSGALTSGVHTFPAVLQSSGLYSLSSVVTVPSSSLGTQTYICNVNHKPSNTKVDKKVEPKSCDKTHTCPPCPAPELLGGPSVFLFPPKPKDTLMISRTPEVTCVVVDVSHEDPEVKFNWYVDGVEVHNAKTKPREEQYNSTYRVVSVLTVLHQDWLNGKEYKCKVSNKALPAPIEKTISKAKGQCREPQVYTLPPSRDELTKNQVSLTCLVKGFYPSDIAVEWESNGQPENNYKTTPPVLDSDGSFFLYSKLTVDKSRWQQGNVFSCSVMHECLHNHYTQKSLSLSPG
light: DIVLTQSPASLAVSLGQRATISCRASESVDSYGQSYMHWYQQKAGQPPKLLIYLASNLESGVPARFSGSGSRTDFTLTIDPVQAEDAATYYCQQNAEDSRTFGGGTKLEIKGGGGGGGDIQMTQSPASLSVSVGDTITLTCHASQNIDVWLSWFQQKPGNIPKLLIYKASNLHTGVPSRFSGSGSGTGFTLTISSLQPEDIATYYCQQAHSYPFTFGGGTKLEIKRGGGGGRTVAAPSVFIFPPSDEQLKSGTASVVCLLNNFYPREAKVQWKVDNALQSGNSQESVTEQDSKDSTYSLSSTLTLSKADYEKHKVYACEVTHQGLSSPVTKSFNRGEC

Kd [10]: 0.012 nM
B9: CODV-Fab Batch ID 421 (IL4 × IL13; L1=7, L2=5, L3=1, L4=2) (bispecific antibody)
heavy: QVQLQQSGPELVKPGASVKISCKASGYSFTSYWIHWIKQRPGQGLEWIGMIDPSDGETRLNQRFQGRATLTVDESTSTAYMQLRSPTSEDSAVYYCTRLKEYGNYDSFYFDVWGAGTLVTVSSGEVQLKESGPGLVAPGGSLSITCTVSGFSLTDSSINWVRQPPGKGLEWLGMIWGDGRIDYADALKSRLSISKDSSKSQVFLEMTSLRTDDTATYYCARDGYFPYAMDFWGQGTSVTVSSGGASTKGPSVFPLAPSSKSTSGGTAALGCLVKDYFPEPVTVSWNSGALTSGVHTFPAVLQSSGLYSLSSVVTVPSSSLGTQTYICNVNHKPSNTKVDKKVEPKSCDKTHTHHHHHH
light: DIVLTQSPASLAVSLGQRATISCRASESVDSYGQSYMHWYQQKAGQPPKLLIYLASNLESGVPARFSGSGSRTDFTLTIDPVQAEDAATYYCQQNAEDSRTFGGGTKLEIKGGGGGGGDIQMTQSPASLSVSVGDTITLTCHASQNIDVWLSWFQQKPGNIPKLLIYKASNLHTGVPSRFSGSGSGTGFTLTISSLQPEDIATYYCQQAHSYPFTFGGGTKLEIKGGGGGRTVAAPSVFIFPPSDEQLKSGTASVVCLLNNFYPREAKVQWKVDNALQSGNSQESVTEQDSKDSTYSLSSTLTLSKADYEKHKVYACEVTHQGLSSPVTKSFNRGEC

Kd [9]: 0.004 nM
IC50 Cellular Assay IL4 [nM] (HEK-Blue IL-4/IL-13 reporter cells, SEAP) [7]: 0.036 nM
B10: CODV-Ig Batch ID 603 (Batch ID 204 with P446G447 to G446E447C448 in IGHG1) (bispecific antibody)
heavy: QVQLQQSGPELVKPGASVKISCKASGYSFTSYWIHWIKQRPGQGLEWIGMIDPSDGETRLNQRFQGRATLTVDESTSTAYMQLRSPTSEDSAVYYCTRLKEYGNYDSFYFDVWGAGTLVTVSSGEVQLKESGPGLVAPGGSLSITCTVSGFSLTDSSINWVRQPPGKGLEWLGMIWGDGRIDYADALKSRLSISKDSSKSQVFLEMTSLRTDDTATYYCARDGYFPYAMDFWGQGTSVTVSSGGASTKGPSVFPLAPSSKSTSGGTAALGCLVKDYFPEPVTVSWNSGALTSGVHTFPAVLQSSGLYSLSSVVTVPSSSLGTQTYICNVNHKPSNTKVDKKVEPKSCDKTHTCPPCPAPELLGGPSVFLFPPKPKDTLMISRTPEVTCVVVDVSHEDPEVKFNWYVDGVEVHNAKTKPREEQYNSTYRVVSVLTVLHQDWLNGKEYKCKVSNKALPAPIEKTISKAKGQPREPQVYTLPPSRDELTKNQVSLTCLVKGFYPSDIAVEWESNGQPENNYKTTPPVLDSDGSFFLYSKLTVDKSRWQQGNVFSCSVMHEALHNHYTQKSLSLSGEC
light: B9 light
notes: C-terminal change P446G447 to G446E447C448

IC50 Cellular Assay IL4 [nM] (HEK-Blue IL-4/IL-13 reporter cells, SEAP) [11]: 0.04 nM
Kd [12]: 0.002 nM
B12: CODV-Ig Batch ID 804 (Batch ID 204 with LC G116C, HC Q43C) (bispecific antibody)
heavy: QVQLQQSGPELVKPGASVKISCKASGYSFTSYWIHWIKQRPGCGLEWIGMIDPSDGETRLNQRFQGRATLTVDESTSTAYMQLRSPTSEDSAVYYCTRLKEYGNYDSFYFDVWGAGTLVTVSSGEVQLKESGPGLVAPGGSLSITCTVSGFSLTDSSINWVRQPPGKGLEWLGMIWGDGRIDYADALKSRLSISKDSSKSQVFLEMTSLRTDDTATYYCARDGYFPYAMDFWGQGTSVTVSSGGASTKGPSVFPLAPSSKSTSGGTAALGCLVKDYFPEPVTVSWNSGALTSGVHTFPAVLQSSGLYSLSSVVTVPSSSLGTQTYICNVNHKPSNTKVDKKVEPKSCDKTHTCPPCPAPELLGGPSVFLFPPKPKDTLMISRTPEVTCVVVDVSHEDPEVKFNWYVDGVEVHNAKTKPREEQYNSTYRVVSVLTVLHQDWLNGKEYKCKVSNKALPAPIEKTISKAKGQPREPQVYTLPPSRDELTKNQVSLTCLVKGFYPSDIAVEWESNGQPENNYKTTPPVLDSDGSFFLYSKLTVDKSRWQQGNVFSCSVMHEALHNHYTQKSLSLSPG
light: B9 light with G116C
modifications: Engineered cysteine pair LC C116 (in L1) and HC C43, intended inter-chain disulfide.
notes: The mutation numbers are read as counts along the whole chain: G116C lies in L1 as printed; Q43C lies in the N-terminal anti-IL4 VH

The remaining lines, values behind:

B2: CODV-Ig Batch ID 507 (IL4 × IL13 on HC; L1 GQPKAAP, L2 QPKAA, L3 S, L4 RT) (bispecific antibody)
heavy: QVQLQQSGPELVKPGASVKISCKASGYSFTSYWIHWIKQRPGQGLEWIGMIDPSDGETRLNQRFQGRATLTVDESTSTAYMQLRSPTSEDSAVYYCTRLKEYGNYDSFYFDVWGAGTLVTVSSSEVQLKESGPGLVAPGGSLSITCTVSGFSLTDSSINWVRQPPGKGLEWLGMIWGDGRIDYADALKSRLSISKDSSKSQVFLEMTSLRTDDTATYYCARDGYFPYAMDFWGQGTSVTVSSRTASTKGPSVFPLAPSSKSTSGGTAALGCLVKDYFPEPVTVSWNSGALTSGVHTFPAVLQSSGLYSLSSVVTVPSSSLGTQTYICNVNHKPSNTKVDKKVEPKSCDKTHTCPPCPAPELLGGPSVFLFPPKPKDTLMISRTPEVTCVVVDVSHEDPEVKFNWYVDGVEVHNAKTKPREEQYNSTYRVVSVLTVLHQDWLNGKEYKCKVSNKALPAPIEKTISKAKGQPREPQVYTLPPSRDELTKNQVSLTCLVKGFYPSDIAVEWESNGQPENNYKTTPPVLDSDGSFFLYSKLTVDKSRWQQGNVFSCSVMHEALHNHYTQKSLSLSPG
light: DIVLTQSPASLAVSLGQRATISCRASESVDSYGQSYMHWYQQKAGQPPKLLIYLASNLESGVPARFSGSGSRTDFTLTIDPVQAEDAATYYCQQNAEDSRTFGGGTKLEIKGQPKAAPDIQMTQSPASLSVSVGDTITLTCHASQNIDVWLSWFQQKPGNIPKLLIYKASNLHTGVPSRFSGSGSGTGFTLTISSLQPEDIATYYCQQAHSYPFTFGGGTKLEIKQPKAARTVAAPSVFIFPPSDEQLKSGTASVVCLLNNFYPREAKVQWKVDNALQSGNSQESVTEQDSKDSTYSLSSTLTLSKADYEKHKVYACEVTHQGLSSPVTKSFNRGEC
Kd [3]: 0.001 nM
IC50 Cellular Assay IL4 [nM] (HEK-Blue IL-4/IL-13 reporter cells, SEAP) [4]: 0.04 nM

B3: parental anti-IL4 mAb (antibody, V domains shown)
VH: QVQLQQSGPELVKPGASVKISCKASGYSFTSYWIHWIKQRPGQGLEWIGMIDPSDGETRLNQRFQGRATLTVDESTSTAYMQLRSPTSEDSAVYYCTRLKEYGNYDSFYFDVWGAGTLVTVSS
VL: DIQMTQSPASLSVSVGDTITLTCHASQNIDVWLSWFQQKPGNIPKLLIYKASNLHTGVPSRFSGSGSGTGFTLTISSLQPEDIATYYCQQAHSYPFTFGGGTKLEIKR
notes: also called parental humanized anti-IL4; 8D4
Kd [5]: 0.00783 nM
koff [5]: 0.000195 s⁻¹
kon [5]: 2.49e+07 M⁻¹ s⁻¹

B5: CODV-Ig Batch ID 508 (IL4 × IL13 on HC; L1 HIDSPNK, L2 QRIEG, L3 V, L4 SL) (bispecific antibody)
heavy: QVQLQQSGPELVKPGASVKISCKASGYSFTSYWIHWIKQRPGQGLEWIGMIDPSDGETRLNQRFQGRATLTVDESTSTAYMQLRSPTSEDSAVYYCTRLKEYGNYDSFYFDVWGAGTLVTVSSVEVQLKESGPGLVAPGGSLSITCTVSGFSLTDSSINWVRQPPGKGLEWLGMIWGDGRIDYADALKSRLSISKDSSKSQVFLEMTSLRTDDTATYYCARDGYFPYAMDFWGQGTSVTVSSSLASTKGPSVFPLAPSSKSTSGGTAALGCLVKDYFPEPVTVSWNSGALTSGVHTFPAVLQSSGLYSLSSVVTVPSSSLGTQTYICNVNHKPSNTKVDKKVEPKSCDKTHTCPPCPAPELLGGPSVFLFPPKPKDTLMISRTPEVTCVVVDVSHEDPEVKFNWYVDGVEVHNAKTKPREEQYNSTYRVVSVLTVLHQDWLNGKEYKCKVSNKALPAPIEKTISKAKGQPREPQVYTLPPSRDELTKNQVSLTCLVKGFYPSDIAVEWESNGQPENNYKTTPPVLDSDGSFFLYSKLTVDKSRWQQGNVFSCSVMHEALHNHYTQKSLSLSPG
light: DIVLTQSPASLAVSLGQRATISCRASESVDSYGQSYMHWYQQKAGQPPKLLIYLASNLESGVPARFSGSGSRTDFTLTIDPVQAEDAATYYCQQNAEDSRTFGGGTKLEIKHIDSPNKDIQMTQSPASLSVSVGDTITLTCHASQNIDVWLSWFQQKPGNIPKLLIYKASNLHTGVPSRFSGSGSGTGFTLTISSLQPEDIATYYCQQAHSYPFTFGGGTKLEIKQRIEGRTVAAPSVFIFPPSDEQLKSGTASVVCLLNNFYPREAKVQWKVDNALQSGNSQESVTEQDSKDSTYSLSSTLTLSKADYEKHKVYACEVTHQGLSSPVTKSFNRGEC
Kd [3]: 0.001 nM
IC50 Cellular Assay IL4 [nM] (HEK-Blue IL-4/IL-13 reporter cells, SEAP) [4]: 0.054 nM

B6: CODV-Ig Batch ID 129 (IL4 × IL13 on LC; L1=1, L2=3, L3=2, L4=4) (bispecific antibody)
chain 1: not shown
chain 2: DIQMTQSPASLSVSVGDTITLTCHASQNIDVWLSWFQQKPGNIPKLLIYKASNLHTGVPSRFSGSGSGTGFTLTISSLQPEDIATYYCQQAHSYPFTFGGGTKLEIKGDIVLTQSPASLAVSLGQRATISCRASESVDSYGQSYMHWYQQKAGQPPKLLIYLASNLESGVPARFSGSGSRTDFTLTIDPVQAEDAATYYCQQNAEDSRTFGGGTKLEIKGGGRTVAAPSVFIFPPSDEQLKSGTASVVCLLNNFYPREAKVQWKVDNALQSGNSQESVTEQDSKDSTYSLSSTLTLSKADYEKHKVYACEVTHQGLSSPVTKSFNRGEC
Kd [1]: 0.005 nM
Kd [2]: 0.07 nM

B7: TBTI/DVD-Ig molecule incorporating anti-IL4 and anti-IL13 sequences (FIG. 7, upper panel) (bispecific antibody)
heavy: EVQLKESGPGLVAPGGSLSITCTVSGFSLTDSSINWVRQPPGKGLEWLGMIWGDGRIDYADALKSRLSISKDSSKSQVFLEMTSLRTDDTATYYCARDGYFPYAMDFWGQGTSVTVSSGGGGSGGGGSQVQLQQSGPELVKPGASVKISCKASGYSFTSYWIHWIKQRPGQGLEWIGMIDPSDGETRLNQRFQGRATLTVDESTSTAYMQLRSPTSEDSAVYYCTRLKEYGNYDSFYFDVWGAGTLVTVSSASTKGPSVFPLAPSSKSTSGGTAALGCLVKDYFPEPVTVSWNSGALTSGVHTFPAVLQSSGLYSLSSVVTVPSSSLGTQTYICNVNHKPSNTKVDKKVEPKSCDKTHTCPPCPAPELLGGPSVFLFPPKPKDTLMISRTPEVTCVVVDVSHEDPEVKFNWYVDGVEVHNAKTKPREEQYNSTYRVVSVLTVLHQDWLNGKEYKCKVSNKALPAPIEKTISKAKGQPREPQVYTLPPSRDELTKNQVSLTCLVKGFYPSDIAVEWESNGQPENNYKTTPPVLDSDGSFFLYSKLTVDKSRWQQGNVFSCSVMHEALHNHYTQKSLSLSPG
light: DIVLTQSPASLAVSLGQRATISCRASESVDSYGQSYMHWYQQKAGQPPKLLIYLASNLESGVPARFSGSGSRTDFTLTIDPVQAEDAATYYCQQNAEDSRTFGGGTKLEIKGGGGSGGGGSDIQMTQSPASLSVSVGDTITLTCHASQNIDVWLSWFQQKPGNIPKLLIYKASNLHTGVPSRFSGSGSGTGFTLTISSLQPEDIATYYCQQAHSYPFTFGGGTKLEIKRTVAAPSVFIFPPSDEQLKSGTASVVCLLNNFYPREAKVQWKVDNALQSGNSQESVTEQDSKDSTYSLSSTLTLSKADYEKHKVYACEVTHQGLSSPVTKSFNRGEC
notes: also called TBTI/DVD-Ig format
Kd [8]: 0.0263 nM
koff [8]: 0.00015 s⁻¹
kon [8]: 5.7e+06 M⁻¹ s⁻¹

B8: CODV-Ig Batch ID 602 (Batch ID 204 with S376C & P397C in IGHG1) (bispecific antibody)
heavy: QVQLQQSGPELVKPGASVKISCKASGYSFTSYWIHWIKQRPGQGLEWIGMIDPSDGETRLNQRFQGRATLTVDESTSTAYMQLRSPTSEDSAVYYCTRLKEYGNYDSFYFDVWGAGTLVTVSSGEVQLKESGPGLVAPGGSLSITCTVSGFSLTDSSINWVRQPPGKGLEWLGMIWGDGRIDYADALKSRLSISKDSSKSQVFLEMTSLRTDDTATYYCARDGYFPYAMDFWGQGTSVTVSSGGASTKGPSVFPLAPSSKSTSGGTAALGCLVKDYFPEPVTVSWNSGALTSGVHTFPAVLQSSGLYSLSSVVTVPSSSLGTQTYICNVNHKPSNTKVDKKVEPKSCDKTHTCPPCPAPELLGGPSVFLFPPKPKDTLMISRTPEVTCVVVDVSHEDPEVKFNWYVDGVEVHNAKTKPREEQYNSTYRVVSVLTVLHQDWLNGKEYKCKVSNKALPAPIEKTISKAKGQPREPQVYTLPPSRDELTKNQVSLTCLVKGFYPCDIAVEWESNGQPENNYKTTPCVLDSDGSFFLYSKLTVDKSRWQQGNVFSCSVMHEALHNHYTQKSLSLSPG
light: B9 light
modifications: Engineered cysteine pair in CH3 (intended intradomain disulfide C376-C397, patent's count).
notes: The mutation numbers are those of the column 'Introduced Mutations IGHG1'
Kd [9]: 0.01 nM
IC50 Cellular Assay IL4 [nM] (HEK-Blue IL-4/IL-13 reporter cells, SEAP) [7]: 0.034 nM

B11: CODV-Ig Batch ID 805 (Batch ID 204 with LC G117C, HC Q43C) (bispecific antibody)
heavy: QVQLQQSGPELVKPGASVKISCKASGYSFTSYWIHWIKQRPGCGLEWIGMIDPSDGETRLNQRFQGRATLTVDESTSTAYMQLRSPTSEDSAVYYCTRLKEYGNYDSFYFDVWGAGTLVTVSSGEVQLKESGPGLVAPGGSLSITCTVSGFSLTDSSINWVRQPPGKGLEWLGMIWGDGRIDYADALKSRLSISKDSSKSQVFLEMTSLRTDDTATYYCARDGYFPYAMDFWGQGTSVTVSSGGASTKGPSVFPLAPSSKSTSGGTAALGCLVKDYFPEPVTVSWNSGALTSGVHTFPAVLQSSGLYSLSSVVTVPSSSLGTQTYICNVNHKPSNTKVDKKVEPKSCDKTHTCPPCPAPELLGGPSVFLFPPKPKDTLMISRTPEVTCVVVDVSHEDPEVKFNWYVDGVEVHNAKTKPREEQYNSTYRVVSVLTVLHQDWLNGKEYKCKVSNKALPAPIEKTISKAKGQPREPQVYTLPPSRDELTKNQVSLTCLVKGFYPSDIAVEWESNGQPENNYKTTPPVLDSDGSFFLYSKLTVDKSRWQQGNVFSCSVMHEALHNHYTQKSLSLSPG
light: B9 light with G117C
notes: The mutation numbers are read as counts along the whole chain: G117C lies in L1 as printed; Q43C lies in the N-terminal anti-IL4 VH
IC50 Cellular Assay IL4 [nM] (HEK-Blue IL-4/IL-13 reporter cells, SEAP) [11]: 0.047 nM
Kd [12]: 0.007 nM

B13: CODV-Ig Batch ID 803 (Batch ID 204 with LC G115C, HC Q43C) (bispecific antibody)
heavy: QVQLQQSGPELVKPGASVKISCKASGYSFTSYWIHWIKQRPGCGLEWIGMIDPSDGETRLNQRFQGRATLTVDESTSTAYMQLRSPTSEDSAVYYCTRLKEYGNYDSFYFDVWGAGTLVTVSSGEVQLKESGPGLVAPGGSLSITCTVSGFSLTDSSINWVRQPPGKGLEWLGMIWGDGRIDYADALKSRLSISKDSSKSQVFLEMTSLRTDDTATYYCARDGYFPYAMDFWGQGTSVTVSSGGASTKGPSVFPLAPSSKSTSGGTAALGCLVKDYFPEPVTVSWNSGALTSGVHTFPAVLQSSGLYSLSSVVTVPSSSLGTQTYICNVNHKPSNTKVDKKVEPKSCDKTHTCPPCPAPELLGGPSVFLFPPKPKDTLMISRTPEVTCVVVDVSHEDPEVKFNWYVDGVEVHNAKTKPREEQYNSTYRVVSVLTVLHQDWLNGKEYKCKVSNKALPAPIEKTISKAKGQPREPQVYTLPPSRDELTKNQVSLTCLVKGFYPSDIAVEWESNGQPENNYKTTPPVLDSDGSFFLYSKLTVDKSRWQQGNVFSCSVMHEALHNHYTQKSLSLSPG
light: B9 light with G115C
modifications: Engineered cysteine pair LC C115 (in L1) and HC C43, intended inter-chain disulfide.
notes: The mutation numbers are read as counts along the whole chain: G115C lies in L1 as printed; Q43C lies in the N-terminal anti-IL4 VH
IC50 Cellular Assay IL4 [nM] (HEK-Blue IL-4/IL-13 reporter cells, SEAP) [11]: 0.036 nM
Kd [12]: 0.006 nM

B14: CODV-Ig Batch ID 802 (Batch ID 204 with LC G114C, HC Q43C) (bispecific antibody)
heavy: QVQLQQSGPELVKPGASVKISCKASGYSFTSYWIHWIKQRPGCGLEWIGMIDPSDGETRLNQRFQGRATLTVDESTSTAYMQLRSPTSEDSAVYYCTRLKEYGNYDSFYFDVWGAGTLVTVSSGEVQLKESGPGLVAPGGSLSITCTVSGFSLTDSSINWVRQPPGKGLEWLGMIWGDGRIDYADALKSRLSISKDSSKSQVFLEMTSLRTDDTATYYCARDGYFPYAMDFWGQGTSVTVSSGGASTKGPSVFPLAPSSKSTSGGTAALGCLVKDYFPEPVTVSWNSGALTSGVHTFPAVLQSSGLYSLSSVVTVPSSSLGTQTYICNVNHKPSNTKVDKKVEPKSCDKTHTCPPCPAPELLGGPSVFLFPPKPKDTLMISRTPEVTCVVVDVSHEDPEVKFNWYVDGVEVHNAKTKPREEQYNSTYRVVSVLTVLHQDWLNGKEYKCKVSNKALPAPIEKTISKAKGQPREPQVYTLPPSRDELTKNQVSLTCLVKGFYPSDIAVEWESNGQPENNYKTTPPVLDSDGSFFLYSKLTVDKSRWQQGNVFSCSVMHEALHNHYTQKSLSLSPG
light: B9 light with G114C
modifications: Engineered cysteine pair LC C114 (in L1) and HC C43, intended inter-chain disulfide.
notes: The mutation numbers are read as counts along the whole chain: G114C lies in L1 as printed; Q43C lies in the N-terminal anti-IL4 VH
IC50 Cellular Assay IL4 [nM] (HEK-Blue IL-4/IL-13 reporter cells, SEAP) [11]: 0.027 nM
Kd [12]: 0.006 nM
